Measured values as given in patent US20260209285A1, “SWEET-TASTING PROTEIN BRAZZEIN MUTANT HAVING HIGH SWEETNESS AND PREPARATION METHOD THEREFOR” (NANJING BESTZYME BIO-ENGINEERING CO., LTD., priority 2022, published 2026).
Like-named read-outs stand apart in the source and are kept apart here.

Experiments:
[1] = cited from earlier work; for sweetness relative to sucrose of the same weight: calculated by weight, prior art; for sweetness delay: prior art CN 102498126 A
healthy evaluators [2] = assay: Determination of sweetness threshold by human sensory evaluation; format: in vivo; details: for Sweetness fold relative to 1% sucrose: =10000/(sample sweetness threshold); for Concentration (μg/mL) corresponding to threshold: sweetness threshold, protein diluted with mineral water (pH 6.9), averaged for 10 individuals
Method: Since the recombinant Brazzein of the present disclosure is not a sugar-based compound, it is impossible to measure the sweetness by using a saccharometer. Therefore, the sweetness threshold is measured using human sensory evaluation. For most people, the sweetness threshold for sugar in soft drinks is 0.32%-1.0%. To assess the sweetness threshold for each solution, an 1% sucrose solution is used as the solution with minimum concentration at which sweetness is felt, i.e., the sweetness threshold is 10000 μg/mL The sweetness potency of the Brazzein described herein relative to sucrose is generally in a range of 1:500 to 1:16,000. The samples tested included naturally extracted Brazzein (homemade, about 95% pure), recombinant Brazzein and mutants thereof, sucrose and mineral water. The protein was diluted in a gradient from 0.5 to 20 μg/ml by diluting the dry protein powder with mineral water (pH 6.9). Ten healthy evaluators (five males and five females) aged between 30 and 50 participated in the assessment, five of whom were trained wine tasters. Tasting started at the lowest concentration, with concentration increased by 1 μg/ml each time until sweetness was felt; then based on this concentration, the concentration was reduced by 0.1 μg/ml at a time until sweetness was not felt; and the sweetness threshold of the sample was determined by gradually decreasing the concentration gradient in such a way. 20 ml of samples were tested randomly compared to sugar solutions. Before each analysis, the evaluator was asked to rinse his/her mouth with water and eat the neutral crackers until there was no residual taste. The test solution was held in oral cavity for at least 10 seconds. Thereafter, evaluators provided scores against samples on the basis of their responses between 0 and 10; 0—no sweet feeling, 10—highly sweet. The final results for each protein were averaged for 10 individuals. The sweetness factor of Brazzein and mutants thereof relative to 1% sucrose=10000/(sample sweetness threshold).

[3] = aqueous solution, 80° C. for 4 hours; cited from earlier work
healthy evaluators [4] = details: 1% sucrose solution used as minimum concentration at which sweetness is felt; cited from earlier work

Row | Molecule | Sweetness fold relative to 1% sucrose (healthy evaluators [2]) [fold] | Concentration (μg/mL) corresponding to threshold (healthy evaluators [2]) [µg/mL] | also measured
1 | Brazzein [Brazzein expressed by Pichia pastoris] |  |  | sweetness relative to sucrose of the same weight [1]: 40 times
2 | Brazzein (QDKCKKVYENYPVSKCQLANQCNYDCKLDKHARSGECFYDEKRNLQCICDYCEY; UniProt P56552 1-54, looked up) [Naturally extracted Brazzein, naturally extracted Brazzein (homemade, about 95% pure), reference compound] | 501 | 20 ± 3.9 | 
3 | Brazzein [Brazzein] (DKCKKVYENYPVSKCQLANQCNYDCKLDKHARSGECFYDEKRNLQCICDYCEY; listed as Pentadiplandra brazzeana) [sweet protein extracted from fruits of Pentadiplandra brazzeana (Baillon), 54 amino acids, 6.5 kDa] |  |  | sweetness after heat treatment [3]: remains sweet
4 | OC[C@H]1O[C@@](CO)(O[C@H]2O[C@H](CO)[C@@H](O)[C@H](O)[C@H]2O)[C@@H](O)[C@@H]1O [sucrose] |  |  | sweetness threshold of sucrose (reference) (healthy evaluators [4]): 10000 µg/mL
5 | Brazzein |  |  | sweetness relative to sucrose of the same weight ([1]; listed as Brazzein expressed in an Aspergillus oryzae host in patent CN102498126A): 510 times; sweetness relative to sucrose of the same weight ([1]; listed as expressed Brazzein): about 510 times; sweetness delay [1]: about 1.5 seconds; sweetness delay ([1]; listed as expressed Brazzein): obvious sweetness delay
6 | ROLpro-BXT-D1: BXT-D1 expressed fused to leader peptide ROLpro, SEQ ID NO: 21; leader removed by cleavage (protein, ROLpro leader removed by cleavage) DDNLVGGMTLDLPSDAPPISLSSSTNSAVALEKRDKCKKVYENYPVSKCQLANQCNYDCKLDKHARSGDCFYDAKRNLQCICDYCEY | 6666.7 | 1.5 ± 0.3 | 
7 | ROLpro-BXT-D2: BXT-D2 expressed fused to leader peptide ROLpro, SEQ ID NO: 23; leader removed by cleavage (protein, ROLpro leader removed by cleavage) DDNLVGGMTLDLPSDAPPISLSSSTNSAVALEKRDKCKKVYENYPVSKCQLANQCNYDCKLDKHARSGDCFYDDKRNLQCICDYCEY | 3703.7 | 2.7 ± 0.5 | 
8 | ROLpro-BXT-D3: BXT-D3 expressed fused to leader peptide ROLpro, SEQ ID NO: 25; leader removed by cleavage (protein, ROLpro leader removed by cleavage) DDNLVGGMTLDLPSDAPPISLSSSTNSAVALEKRDKCKKVYENYPVSKCQLANQCNYDCKLDKHARSGDCFYDKKRNLQCICDYCEY | 6250 | 1.6 ± 0.3 | 
9 | ROLpro-BXT-D4: BXT-D4 expressed fused to leader peptide ROLpro, SEQ ID NO: 27; leader removed by cleavage (protein, ROLpro leader removed by cleavage) DDNLVGGMTLDLPSDAPPISLSSSTNSAVALEKRDKCKKVYENYPVSKCQLANQCNYDCKLDKHARSGDCFYDRKRNLQCICDYCEY | 8333.3 | 1.2 ± 0.2 | 
10 | ROLpro-BXT-D5: BXT-D5 expressed fused to leader peptide ROLpro, SEQ ID NO: 29; leader removed by cleavage (protein, ROLpro leader removed by cleavage) DDNLVGGMTLDLPSDAPPISLSSSTNSAVALEKRDKCKKVYENYPVSKCQLANQCNYDCKLDKRARSGDCFYDAKRNLQCICDYCEY | 8333.3 | 1.2 ± 0.2 | 
11 | ROLpro-BXT-D6: BXT-D6 expressed fused to leader peptide ROLpro, SEQ ID NO: 31; leader removed by cleavage (protein, ROLpro leader removed by cleavage) DDNLVGGMTLDLPSDAPPISLSSSTNSAVALEKRDKCKKVYENYPVSKCQLANQCNYDCKLDKRARSGDCFYDKKRNLQCICDYCEY | 16666.7 | 0.6 ± 0.1 | 
12 | ROLpro-BXT-D7: BXT-D7 expressed fused to leader peptide ROLpro, SEQ ID NO: 33; leader removed by cleavage (protein, ROLpro leader removed by cleavage) DDNLVGGMTLDLPSDAPPISLSSSTNSAVALEKRDKCKKVYENYPVSKCQLANQCNYDCKLDKRARSGDCFYDRKRNLQCICDYCEY | 16666.7 | 0.6 ± 0.1 | 
13 | ROLpro-BXT: Brazzein BXT expressed fused to Rhizopus oryzae lipase leader peptide ROLpro with kex2 site, SEQ ID NO: 19; leader removed by cleavage (protein, ROLpro leader removed by kex2 cleavage) DDNLVGGMTLDLPSDAPPISLSSSTNSAVALEKRDKCKKVYENYPVSKCQLANQCNYDCKLDKHARSGECFYDEKRNLQCICDYCEY | 613.5 | 16.3 ± 2.9 | 
